Reference: patent EP1088069B1

Assays:
Test in all cases: cell-based or functional assay
[1] = biological target: p53 + Binding Domain
[2] = biological target: Angiostatin + Binding Domain (yeast two-hybrid bait fusion) (UniProt P00747)
[3] = biological target: Binding Domain alone

Sequence of UniProt P00747 (P00747 99-459): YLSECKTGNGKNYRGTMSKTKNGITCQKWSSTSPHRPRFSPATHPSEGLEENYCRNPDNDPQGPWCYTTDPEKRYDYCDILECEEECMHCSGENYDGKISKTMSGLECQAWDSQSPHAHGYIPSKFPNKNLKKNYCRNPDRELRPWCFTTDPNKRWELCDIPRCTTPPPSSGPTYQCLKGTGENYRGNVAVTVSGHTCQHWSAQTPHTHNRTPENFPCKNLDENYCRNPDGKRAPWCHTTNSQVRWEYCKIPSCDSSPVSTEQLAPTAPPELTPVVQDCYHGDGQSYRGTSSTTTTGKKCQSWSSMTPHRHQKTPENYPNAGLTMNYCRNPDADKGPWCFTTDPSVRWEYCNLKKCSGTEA

Row | Substance | β-Gal Activity [1] [u] | β-Gal Activity [2] [u] | β-Gal Activity [3] [u]
1 | SV40LT - Activation Domain (from UniProt P03070 84-708) | 90 |  | 
2 | Big3 - Activation Domain (yeast two-hybrid prey fusion) (from UniProt Q4VCS5 871-1013) | 0.05 | 15 | 0.07
3 | Activation Domain alone (from UniProt P04386 768-881) |  | < 0.04 | 
